# Molecular target: stk39_mouse Stk39 (UniProt Q9Z1W9)
substance,measurement,value
"Serine/threonine-protein kinase WNK3 (Homo sapiens), Q9BYP7-2 F1337A",effect of a mutation on the interaction,disrupting interaction

# From IntAct's records for PubMed 18550832
